Reference: patent publication US20100081611A1

Biological target: pre-assembled ICN-CSL complex (UniProt P46531)
Experiment: surface plasmon resonance, peptide immobilized, pre-assembled ICN-CSL complex

Sequence of pre-assembled ICN-CSL complex (P46531 1760-2126, chain 1 of 2): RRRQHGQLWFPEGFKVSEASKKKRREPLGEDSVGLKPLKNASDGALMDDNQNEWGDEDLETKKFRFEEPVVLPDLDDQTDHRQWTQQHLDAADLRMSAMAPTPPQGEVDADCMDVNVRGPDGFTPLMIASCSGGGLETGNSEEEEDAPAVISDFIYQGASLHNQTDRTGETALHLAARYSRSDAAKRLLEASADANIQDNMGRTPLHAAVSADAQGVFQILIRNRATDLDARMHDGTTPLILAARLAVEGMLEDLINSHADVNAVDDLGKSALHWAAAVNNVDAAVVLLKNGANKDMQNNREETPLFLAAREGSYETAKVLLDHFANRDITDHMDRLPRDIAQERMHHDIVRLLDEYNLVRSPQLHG
Sequence of pre-assembled ICN-CSL complex (Q06330 23-449, chain 2 of 2, further chain): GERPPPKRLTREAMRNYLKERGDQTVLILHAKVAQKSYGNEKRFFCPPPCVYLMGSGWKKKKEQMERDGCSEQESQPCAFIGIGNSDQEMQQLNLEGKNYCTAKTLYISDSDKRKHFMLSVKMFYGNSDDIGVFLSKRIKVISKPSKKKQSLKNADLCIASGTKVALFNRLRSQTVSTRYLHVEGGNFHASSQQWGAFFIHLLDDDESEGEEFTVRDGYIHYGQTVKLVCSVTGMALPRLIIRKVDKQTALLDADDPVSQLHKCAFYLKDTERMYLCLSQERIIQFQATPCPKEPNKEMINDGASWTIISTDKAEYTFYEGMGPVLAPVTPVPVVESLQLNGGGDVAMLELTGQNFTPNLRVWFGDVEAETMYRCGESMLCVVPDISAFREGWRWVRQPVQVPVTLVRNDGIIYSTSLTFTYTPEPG

Work on “SAHN1 (REM-G1), internally cross-linked (stapled) MAML-1 polypeptide” yielded a Kd of 98 nM.
